The results in this text go back to the supplement of paper PMC9112550, “Optimization of the antimicrobial peptide Bac7 by deep mutational scanning” (BMC Biology, 2022).

The data set relates to Escherichia coli TOP10. The data set is described as follows: shrunken log2 fold change of peptide-encoding DNA abundance (4.5 h post-induction vs induction); higher = less antimicrobial activity (less host growth inhibition). The following applies: time post-induction: 4.5 h; library: site-saturation at positions 5, 18, 19, 20.
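Note: peptides expressed intracellularly from a pBAD plasmid library in pooled LB shake-flask culture, induced with 0.3% L-arabinose, DNA abundance read by NGS, three biological replicates, DESeq2 with apeglm shrinkage.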

For RRIRIRPPRLPRPRPRPRQKPRP, the “shrunken log2 fold change” value was -0.028.

As for RRIRTRPPRLPRPRPRPRKHPRP, the “shrunken log2 fold change” value was -0.166.

Turning to RRIRRRPPRLPRPRPRPTSHPRP, the “shrunken log2 fold change” value was determined as 0.321. Regarding RRIRQRPPRLPRPRPRPSDYPRP, the “shrunken log2 fold change” value was -0.0346. As for RRIRLRPPRLPRPRPRPMRGPRP, the “shrunken log2 fold change” value was 0.839. Take RRIRKRPPRLPRPRPRPGDQPRP: the “shrunken log2 fold change” value is -0.00987. With RRIRFRPPRLPRPRPRPRHTPRP, the “shrunken log2 fold change” value was -0.00169. Take RRIRARPPRLPRPRPRPEQWPRP: the “shrunken log2 fold change” value was found to be 0.0858. RRIRLRPPRLPRPRPRPPPYPRP: the “shrunken log2 fold change” value was 0.388. Regarding RRIRGRPPRLPRPRPRPPTWPRP, the “shrunken log2 fold change” value is 0.466. As for RRIRRRPPRLPRPRPRPGVDPRP, the “shrunken log2 fold change” value was 0.31. Turning to RRIRHRPPRLPRPRPRPMEDPRP, the “shrunken log2 fold change” value worked out at 0.0325. In the case of RRIRQRPPRLPRPRPRPTRCPRP, the “shrunken log2 fold change” value was found to be 0.747. RRIRYRPPRLPRPRPRPFCRPRP: the “shrunken log2 fold change” value is -0.228. For RRIRLRPPRLPRPRPRPDSQPRP, the “shrunken log2 fold change” value is -0.117. On to RRIRARPPRLPRPRPRPYPRPRP, for which the “shrunken log2 fold change” value amounted to 0.00693. For RRIRARPPRLPRPRPRPTIRPRP, the “shrunken log2 fold change” value is 0.109.

Take RRIRERPPRLPRPRPRPWVPPRP: the “shrunken log2 fold change” value was determined as 0.0883. As for RRIRYRPPRLPRPRPRPGTIPRP, the “shrunken log2 fold change” value worked out at 0.137. As to RRIRYRPPRLPRPRPRPKNVPRP, the “shrunken log2 fold change” value came out at 0.0242. As for RRIRERPPRLPRPRPRPFLMPRP, the “shrunken log2 fold change” value was -0.209. For the sequence RRIRWRPPRLPRPRPRPFAQPRP, the “shrunken log2 fold change” value is -0.0369. Regarding RRIRHRPPRLPRPRPRPMWNPRP, the “shrunken log2 fold change” value is -0.0721. For the sequence RRIRYRPPRLPRPRPRPESGPRP, the “shrunken log2 fold change” value was -0.0308. In the case of RRIRMRPPRLPRPRPRPIMIPRP, the “shrunken log2 fold change” value was -0.16. The same measure for RRIRFRPPRLPRPRPRPNALPRP: -0.347. RRIRKRPPRLPRPRPRPKTRPRP: the “shrunken log2 fold change” value turned out to be 0.444.

RRIRWRPPRLPRPRPRPTRSPRP: the “shrunken log2 fold change” value came out at 0.723. As for RRIRDRPPRLPRPRPRPSSDPRP, the “shrunken log2 fold change” value came out at 0.412. The same measure for RRIRKRPPRLPRPRPRPKKIPRP: 0.431; for RRIRMRPPRLPRPRPRPTWLPRP: 0.266. The same measure for RRIRSRPPRLPRPRPRPLLYPRP: -0.162. With RRIRARPPRLPRPRPRPMGTPRP, the “shrunken log2 fold change” value turned out to be 0.304.

As to RRIRIRPPRLPRPRPRPSHDPRP, the “shrunken log2 fold change” value was -0.527. In the case of RRIRIRPPRLPRPRPRPEWHPRP, the “shrunken log2 fold change” value is -0.514. The value for RRIRYRPPRLPRPRPRPDRYPRP was -0.0871; that for RRIRWRPPRLPRPRPRPWFAPRP was 0.135; that for RRIRSRPPRLPRPRPRPNSYPRP was -0.00251. On to RRIRRRPPRLPRPRPRPQIVPRP, for which the “shrunken log2 fold change” value was -0.13. RRIRERPPRLPRPRPRPYKEPRP: the “shrunken log2 fold change” value is -0.117.

Consider RRIRYRPPRLPRPRPRPMDDPRP, for which the “shrunken log2 fold change” value was -0.0837. For the sequence RRIRYRPPRLPRPRPRPALVPRP, the “shrunken log2 fold change” value is 0.112. For the sequence RRIRQRPPRLPRPRPRPPNCPRP, the “shrunken log2 fold change” value was determined as 0.0242. The same measure for RRIRHRPPRLPRPRPRPWWDPRP: -0.0461; for RRIRNRPPRLPRPRPRPPQRPRP: 0.457; for RRIRGRPPRLPRPRPRPCWTPRP: 0.28.

For the sequence RRIRMRPPRLPRPRPRPHCDPRP, the “shrunken log2 fold change” value was -0.0833. As to RRIRYRPPRLPRPRPRPCVCPRP, the “shrunken log2 fold change” value was -1.24. Take RRIRHRPPRLPRPRPRPPHEPRP: the “shrunken log2 fold change” value turned out to be 0.181. Consider RRIRFRPPRLPRPRPRPQFTPRP, for which the “shrunken log2 fold change” value was -0.362.
